Measured values published in patent publication US20210356479A1 (BLOODWORKS, published 2021).

T1: human Kell glycoprotein, k form (KEL2) (human, UniProt P23276 1-732)
T1 construct: whole, on cells; On human k/k or K-k+ RBCs; also called k antigen
T1 sequence (looked up): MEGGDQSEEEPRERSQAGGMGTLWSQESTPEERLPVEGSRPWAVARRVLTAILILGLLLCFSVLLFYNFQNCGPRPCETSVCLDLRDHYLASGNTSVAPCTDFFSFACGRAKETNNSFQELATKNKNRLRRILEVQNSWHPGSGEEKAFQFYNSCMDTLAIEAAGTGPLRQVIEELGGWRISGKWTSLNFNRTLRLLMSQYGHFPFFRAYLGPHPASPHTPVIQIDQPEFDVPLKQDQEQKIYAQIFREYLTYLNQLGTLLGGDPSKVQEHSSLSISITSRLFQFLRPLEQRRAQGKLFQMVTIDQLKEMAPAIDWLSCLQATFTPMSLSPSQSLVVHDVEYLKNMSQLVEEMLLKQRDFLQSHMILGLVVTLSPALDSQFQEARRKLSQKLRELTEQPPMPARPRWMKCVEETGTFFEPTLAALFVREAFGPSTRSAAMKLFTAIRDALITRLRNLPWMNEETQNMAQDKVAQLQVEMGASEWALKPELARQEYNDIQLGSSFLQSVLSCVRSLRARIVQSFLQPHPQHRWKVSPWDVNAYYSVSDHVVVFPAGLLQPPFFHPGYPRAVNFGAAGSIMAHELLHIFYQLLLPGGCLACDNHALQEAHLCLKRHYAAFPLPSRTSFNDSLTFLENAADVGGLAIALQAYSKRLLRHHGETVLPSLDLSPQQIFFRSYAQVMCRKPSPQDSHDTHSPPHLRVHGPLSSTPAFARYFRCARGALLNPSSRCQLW

T2: human Kell glycoprotein, K form (KEL1) (human, UniProt P23276 1-732)
T2 construct: whole, on cells; On human K/K or K+k+ RBCs and on RBCs of K transgenic mice; also called K antigen; K variant
T2 sequence (looked up): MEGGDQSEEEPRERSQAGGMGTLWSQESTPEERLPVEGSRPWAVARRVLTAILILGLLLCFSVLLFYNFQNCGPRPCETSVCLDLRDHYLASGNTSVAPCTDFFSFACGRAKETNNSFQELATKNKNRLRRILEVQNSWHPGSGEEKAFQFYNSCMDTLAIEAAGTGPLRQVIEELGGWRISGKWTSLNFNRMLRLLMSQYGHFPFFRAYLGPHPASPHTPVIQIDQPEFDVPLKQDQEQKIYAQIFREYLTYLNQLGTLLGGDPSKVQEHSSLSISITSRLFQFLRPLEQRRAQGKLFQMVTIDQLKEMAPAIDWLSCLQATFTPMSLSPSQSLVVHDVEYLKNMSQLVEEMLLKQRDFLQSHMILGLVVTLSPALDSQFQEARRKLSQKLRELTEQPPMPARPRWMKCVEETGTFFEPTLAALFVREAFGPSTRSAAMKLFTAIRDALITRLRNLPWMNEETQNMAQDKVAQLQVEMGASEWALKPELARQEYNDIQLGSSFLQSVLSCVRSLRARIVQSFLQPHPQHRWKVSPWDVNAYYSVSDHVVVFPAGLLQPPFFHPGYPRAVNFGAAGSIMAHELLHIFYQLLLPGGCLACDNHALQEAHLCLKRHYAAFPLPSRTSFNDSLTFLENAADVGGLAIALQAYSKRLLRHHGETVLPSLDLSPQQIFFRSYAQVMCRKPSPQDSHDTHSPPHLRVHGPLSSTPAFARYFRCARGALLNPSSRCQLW

B1: PUMA 1 human IgG1-03 isoallotype (antibody)
heavy: EVQLQQSGPELVKPGASVKMSCKASGYTFTDYYMKWVKQSHGKSLEWIGDLNPNNGDTFYNQKFKGKATLTVDKSSSTAYIQLNSLTSEDSAVYYCAREAGSSFGSSCNYWGQGTTLTVS
light: SVVMTQTPKFLLVSAGDRVTITCKASQTVSKDVAWYQQQPGQSPKLLIYYASNRYTGVPDRFTGSGYGTDFTFTISTVQAEDLAVYFCQQDYSSPYTFGGGTKLEIK
notes: Isoallotype named in CLM-00007; not shown: human IgG1 heavy chain constant region, isoallotype IGHG1*03; human kappa light chain constant region (vector pFUSE2-CLIg-hk)
B2: PUMA 1 human IgG1-04v2 isoallotype (antibody)
heavy: EVQLQQSGPELVKPGASVKMSCKASGYTFTDYYMKWVKQSHGKSLEWIGDLNPNNGDTFYNQKFKGKATLTVDKSSSTAYIQLNSLTSEDSAVYYCAREAGSSFGSSCNYWGQGTTLTVS
light: SVVMTQTPKFLLVSAGDRVTITCKASQTVSKDVAWYQQQPGQSPKLLIYYASNRYTGVPDRFTGSGYGTDFTFTISTVQAEDLAVYFCQQDYSSPYTFGGGTKLEIK
notes: Isoallotype named in CLM-00007; also called IGHG1*04v2; not shown: human IgG1 heavy chain constant region, isoallotype IGHG1*04v2; human kappa light chain constant region (vector pFUSE2-CLIg-hk)
B3: PUMA 1 human IgG4 (canonical, isoallotype IgG4-01) (antibody)
heavy: EVQLQQSGPELVKPGASVKMSCKASGYTFTDYYMKWVKQSHGKSLEWIGDLNPNNGDTFYNQKFKGKATLTVDKSSSTAYIQLNSLTSEDSAVYYCAREAGSSFGSSCNYWGQGTTLTVSASTKGPSVFPLAPCSRSTSESTAALGCLVKDYFPEPVTVSWNSGALTSGVHTFPAVLQSSGLYSLSSVVTVPSSSLGTKTYTCNVDHKPSNTKVDKRVESKYGPPCPSCPAPEFLGGPSVFLFPPKPKDTLMISRTPEVTCVVVDVSQEDPEVQFNWYVDGVEVHNAKTKPREEQFNSTYRVVSVLTVLHQDWLNGKEYKCKVSNKGLPSSIEKTISKAKGQPREPQVYTLPPSQEEMTKNQVSLTCLVKGFYPSDIAVEWESNGQPENNYKTTPPVLDSDGSFFLYSRLTVDKSRWQEGNVFSCSVMHEALHNHYTQKSLSLSPGK
light: SVVMTQTPKFLLVSAGDRVTITCKASQTVSKDVAWYQQQPGQSPKLLIYYASNRYTGVPDRFTGSGYGTDFTFTISTVQAEDLAVYFCQQDYSSPYTFGGGTKLEIK
notes: also called PUMA1-IgG4; PUMA 1 IgG4; not shown: human kappa light chain constant region (vector pFUSE2-CLIg-hk)
B4: PUMA 1 human IgG1 (canonical, isoallotype IgG1-01) (antibody)
heavy: not shown
light: SVVMTQTPKFLLVSAGDRVTITCKASQTVSKDVAWYQQQPGQSPKLLIYYASNRYTGVPDRFTGSGYGTDFTFTISTVQAEDLAVYFCQQDYSSPYTFGGGTKLEIK
notes: also called PUMA1-IgG1; PUMA 1 IgG1; not shown: human kappa light chain constant region (vector pFUSE2-CLIg-hk)
B5: PUMA 1 human IgG1-01v2 isoallotype (antibody)
heavy: EVQLQQSGPELVKPGASVKMSCKASGYTFTDYYMKWVKQSHGKSLEWIGDLNPNNGDTFYNQKFKGKATLTVDKSSSTAYIQLNSLTSEDSAVYYCAREAGSSFGSSCNYWGQGTTLTVS
light: SVVMTQTPKFLLVSAGDRVTITCKASQTVSKDVAWYQQQPGQSPKLLIYYASNRYTGVPDRFTGSGYGTDFTFTISTVQAEDLAVYFCQQDYSSPYTFGGGTKLEIK
notes: Isoallotype named in CLM-00007; also called IGHG1*01v2; not shown: human IgG1 heavy chain constant region, isoallotype IGHG1*01v2; human kappa light chain constant region (vector pFUSE2-CLIg-hk)
B6: PUMA 1 human IgG2 (canonical, isoallotype IgG2-01) (antibody)
heavy: EVQLQQSGPELVKPGASVKMSCKASGYTFTDYYMKWVKQSHGKSLEWIGDLNPNNGDTFYNQKFKGKATLTVDKSSSTAYIQLNSLTSEDSAVYYCAREAGSSFGSSCNYWGQGTTLTVSASTKGPSVFPLAPCSRSTSESTAALGCLVKDYFPEPVTVSWNSGALTSGVHTFPAVLQSSGLYSLSSVVTVPSSNFGTQTYTCNVDHKPSNTKVDKTVERKCCVECPPCPAPPVAGPSVFLFPPKPKDTLMISRTPEVTCVVVDVSHEDPEVQFNWYVDGVEVHNAKTKPREEQFNSTFRVVSVLTVVHQDWLNGKEYKCKVSNKGLPAPIEKTISKTKGQPREPQVYTLPPSREEMTKNQVSLTCLVKGFYPSDIAVEWESNGQPENNYKTTPPMLDSDGSFFLYSKLTVDKSRWQQGNVFSCSVMHEALHNHYTQKSLSLSPGK
light: SVVMTQTPKFLLVSAGDRVTITCKASQTVSKDVAWYQQQPGQSPKLLIYYASNRYTGVPDRFTGSGYGTDFTFTISTVQAEDLAVYFCQQDYSSPYTFGGGTKLEIK
notes: also called PUMA1-IgG2; PUMA 1 IgG2; not shown: human kappa light chain constant region (vector pFUSE2-CLIg-hk)
B7: PUMA 1 human IgG3 (canonical, isoallotype IgG3-01) (antibody)
heavy: EVQLQQSGPELVKPGASVKMSCKASGYTFTDYYMKWVKQSHGKSLEWIGDLNPNNGDTFYNQKFKGKATLTVDKSSSTAYIQLNSLTSEDSAVYYCAREAGSSFGSSCNYWGQGTTLTVSASTKGPSVFPLAPCSRSTSGGTAALGCLVKDYFPEPVTVSWNSGALTSGVHTFPAVLQSSGLYSLSSVVTVPSSSLGTQTYTCNVNHKPSNTKVDKRVELKTPLGDTTHTCPRCPEPKSCDTPPPCPRCPEPKSCDTPPPCPRCPEPKSCDTPPPCPRCPAPELLGGPSVFLFPPKPKDTLMISRTPEVTCVVVDVSHEDPEVQFKWYVDGVEVHNAKTKPREEQYNSTFRVVSVLTVLHQDWLNGKEYKCKVSNKALPAPIEKTISKTKGQPREPQVYTLPPSREEMTKNQVSLTCLVKGFYPSDIAVEWESSGQPENNYNTTPPMLDSDGSFFLYSKLTVDKSRWQQGNIFSCSVMHEALHNRFTQKSLSLSPGK
light: SVVMTQTPKFLLVSAGDRVTITCKASQTVSKDVAWYQQQPGQSPKLLIYYASNRYTGVPDRFTGSGYGTDFTFTISTVQAEDLAVYFCQQDYSSPYTFGGGTKLEIK
notes: also called PUMA1-IgG3; PUMA 1 IgG3; not shown: human kappa light chain constant region (vector pFUSE2-CLIg-hk)
B8: PUMA 1 human IgG1-08 isoallotype (antibody)
heavy: EVQLQQSGPELVKPGASVKMSCKASGYTFTDYYMKWVKQSHGKSLEWIGDLNPNNGDTFYNQKFKGKATLTVDKSSSTAYIQLNSLTSEDSAVYYCAREAGSSFGSSCNYWGQGTTLTVS
light: SVVMTQTPKFLLVSAGDRVTITCKASQTVSKDVAWYQQQPGQSPKLLIYYASNRYTGVPDRFTGSGYGTDFTFTISTVQAEDLAVYFCQQDYSSPYTFGGGTKLEIK
notes: Isoallotype named in CLM-00007; not shown: human IgG1 heavy chain constant region, isoallotype IGHG1*08; human kappa light chain constant region (vector pFUSE2-CLIg-hk)
B9: PUMA 1 human IgG1-05 isoallotype (antibody)
heavy: EVQLQQSGPELVKPGASVKMSCKASGYTFTDYYMKWVKQSHGKSLEWIGDLNPNNGDTFYNQKFKGKATLTVDKSSSTAYIQLNSLTSEDSAVYYCAREAGSSFGSSCNYWGQGTTLTVS
light: SVVMTQTPKFLLVSAGDRVTITCKASQTVSKDVAWYQQQPGQSPKLLIYYASNRYTGVPDRFTGSGYGTDFTFTISTVQAEDLAVYFCQQDYSSPYTFGGGTKLEIK
notes: Isoallotype named in CLM-00007; not shown: human IgG1 heavy chain constant region, isoallotype IGHG1*05; human kappa light chain constant region (vector pFUSE2-CLIg-hk)
B10: PUMA 1 human IgG1-07 isoallotype (antibody)
heavy: EVQLQQSGPELVKPGASVKMSCKASGYTFTDYYMKWVKQSHGKSLEWIGDLNPNNGDTFYNQKFKGKATLTVDKSSSTAYIQLNSLTSEDSAVYYCAREAGSSFGSSCNYWGQGTTLTVS
light: SVVMTQTPKFLLVSAGDRVTITCKASQTVSKDVAWYQQQPGQSPKLLIYYASNRYTGVPDRFTGSGYGTDFTFTISTVQAEDLAVYFCQQDYSSPYTFGGGTKLEIK
notes: Isoallotype named in CLM-00007; not shown: human IgG1 heavy chain constant region, isoallotype IGHG1*07; human kappa light chain constant region (vector pFUSE2-CLIg-hk)

Legend:
[1] = molecular target: T1, human Kell glycoprotein, k form (KEL2); assay: flow cytometry on human K-k+ RBCs
[2] = molecular target: T2, human Kell glycoprotein, K form (KEL1); assay: flow cytometry on human K+k+ RBCs, detected with polyclonal anti-IgG
Protocol: Flow cytometry consisted of incubating test RBCs with PUMA 1 variants, followed by the anti-IgG being evaluated, followed by a detection reagent. Test RBCs included RBCs from K mice, wild-type mice, and reagent RBCs from humans with the phenotype of (K+k+) or (K−k+). Test RBCs were resuspended in 50 microliters of supernatants of PUMA 1 isoallotypes; in some cases a 1/10 dilution in phosphate buffered saline (PBS) was used. For purified IgG1-IgG4 PUMA 1, the antibodies were diluted in PBS at the indicated concentrations. The tested anti-IgG reagents were used undiluted. Detection reagents consisted of donkey anti-rabbit conjugated to phycoerythrin at a 1/200 dilution (Affymetrix cat #12-4739-81, Santa Clara, Calif.), goat anti-mouse IgM conjugated to allophycocyanin at a 1/100 dilution (BD Biosciences, cat #550826, San Jose, Calif.), and goat anti-mouse Igs conjugated to allophycocyanin at a 1/100 dilution (SouthernBiotech cat #1020-11s, Birmingham, Ala.). All anti-IgG subclass antibodies were conjugated to phycoerythrin, were purchased from SouthernBiotech (catalog numbers 9056-09, 9070-09, 9210-09, 9200-09), and were used at a dilution of 1.200. All incubations were performed for 30 min at room temperature, followed by three washes with PBS. All flow cytometry was performed on an Accuri 4 color cytometer (BD biosciences, San Jose Calif.) and all data was analyzed with Flo-Jo version 10.
To assess the sensitivity of commercially available anti-IgG preparations for different human IgG subclasses bound to RBCs, K+k+ RBCs were first incubated with PUMA 1 of the different human IgG subclasses, followed by incubation with anti-IgG. Treated RBCs were then stained with a fluorescently labeled antibody specific for the species in which the anti-IgG was generated (and non-reactive with human IgG). For each anti-IgG, the same secondary antibody was used to detect binding of the anti-IgG to each human PUMA 1 IgG subclass. To assess relative sensitivity, titrations of each PUMA 1 IgG subclass were carried out and samples were analyzed by flow cytometry using mean fluorescent intensity (MFI) to quantify staining (FIGS. 28A, 28B).

Binder	binding result [1]	binding result [2]
B1	no binding	binds
B2	no binding	binds
B3	no binding	–
B4	no binding	–
B5	no binding	binds
B6	no binding	–
B7	no binding	–
B8	no binding	binds
B9	no binding	binds
B10	no binding	binds
